Positions count from the first letter of the chain named.

For test [1], the target named is T1, GST-tagged NleL C753A mutant (E. coli O157:H7 Sakai strain, UniProt A0A0H3JDV8 1-782, C753A).
T1 construct: also called GST-NleL-CA; NleL-CA
T1 sequence: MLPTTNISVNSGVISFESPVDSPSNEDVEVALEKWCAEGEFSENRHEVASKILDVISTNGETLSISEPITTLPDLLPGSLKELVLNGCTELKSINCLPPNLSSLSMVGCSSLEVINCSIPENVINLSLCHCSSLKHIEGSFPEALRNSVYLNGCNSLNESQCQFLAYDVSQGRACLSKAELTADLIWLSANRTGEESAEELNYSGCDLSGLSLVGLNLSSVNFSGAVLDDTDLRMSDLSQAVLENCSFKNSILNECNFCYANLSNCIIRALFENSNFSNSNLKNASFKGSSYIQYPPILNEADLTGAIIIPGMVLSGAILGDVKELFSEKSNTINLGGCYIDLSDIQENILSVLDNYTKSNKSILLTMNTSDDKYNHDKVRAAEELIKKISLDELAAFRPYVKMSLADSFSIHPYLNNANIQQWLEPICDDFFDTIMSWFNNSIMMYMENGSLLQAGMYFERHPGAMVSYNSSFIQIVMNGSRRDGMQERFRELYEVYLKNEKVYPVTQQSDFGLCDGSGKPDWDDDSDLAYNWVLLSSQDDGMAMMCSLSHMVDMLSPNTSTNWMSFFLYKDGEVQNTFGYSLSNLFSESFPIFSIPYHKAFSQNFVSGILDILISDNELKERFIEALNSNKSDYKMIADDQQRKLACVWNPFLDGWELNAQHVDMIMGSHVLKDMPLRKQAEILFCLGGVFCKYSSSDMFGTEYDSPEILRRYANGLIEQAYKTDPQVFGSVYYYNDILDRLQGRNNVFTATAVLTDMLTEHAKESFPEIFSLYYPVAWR
Briefly: pull-down. The settings on record: both partners purified.

The target of test [2] is T2, GST-tagged wild-type NleL (full length) (E. coli O157:H7 Sakai strain, UniProt A0A0H3JDV8 1-782).
T2 construct: also called GST-NleL; EspX7; source: E. coli BL21 (DE3), purified (Glutathione Sepharose)
T2 sequence: T1 sequence with A753C
The test can be described thus: pull-down. The settings on record: both partners purified.

B1: His6-tagged JNK1 purified from bacteria (enzyme, human, UniProt P45983-2 1-384, looked up)
chain: MSRSKRDNNFYSVEIGDSTFTVLKRYQNLKPIGSGAQGIVCAAYDAILERNVAIKKLSRPFQNQTHAKRAYRELVLMKCVNHKNIIGLLNVFTPQKSLEEFQDVYIVMELMDANLCQVIQMELDHERMSYLLYQMLCGIKHLHSAGIIHRDLKPSNIVVKSDCTLKILDFGLARTAGTSFMMTPYVVTRYYRAPEVILGMGYKENVDLWSVGCIMGEMVCHKILFPGRDYIDQWNKVIEQLGTPCPEFMKKLQPTVRTYVENRPKYAGYSFEKLFPDVLFPADSEHNKLKASQARDLLSKMLVIDASKRISVDEALQHPYINVWYDPSEAEAPPPKIPDKQLDEREHTIEEWKELIYKEVMDLEERTKNGVIRGQPSPLAQVQQ
notes: human JNK1α1 (MAPK8), in pET28a with 6x His tag; also called His-JNK1; source: E. coli BL21 (DE3), purified (Ni-NTA)
For B1, the binding result in test [1] and in test [2] was “binds” in each case.

(Values after article PMC5549993, “Bacterial effector NleL promotes enterohemorrhagic E. coli-induced attaching and effacing lesions by ubiquitylating and inactivating JNK” (PLoS Pathogens, 2017).)
